Measurements published in publication doi:10.1101/2022.06.28.497981.

Legend:
[1] = molecular target: batCOV5-M, trypsin-treated stable core as crystallized (batCOV5-M_(xtal)) (Pipistrellus bat coronavirus HKU5) (UniProt A3EXD6); experiment: crystal structure
[2] = molecular target: batCOV5-MCTD-GFP as crystallized (Pipistrellus bat coronavirus HKU5) (UniProt A3EXD6); experiment: crystal structure

Substance	stoichiometry N [1]	stoichiometry N [2]
batCOV5-M, trypsin-treated stable core as crystallized (batCOV5-M_(xtal)) (from UniProt A3EXD6 1-220) (natural protein)	2	
batCOV5-MCTD-GFP as crystallized (from UniProt A3EXD6 115-203) (domain or fragment)		4
